Data from patent US7247441B2, “Nucleic acid sequence and protein in addition to polypeptides coding for mannitol dehydrogenases or parts thereof and the production and use thereof in diagnosis and therapy” (Biomay Produktions- Und Handels-Aktienge Sellschaft, priority 2002, dated 2007).

B1: protein prepared in accordance with example 10: recombinantly produced Alternaria alternata mannitol dehydrogenase, seq. ID No. 11, purified over a nickel chelate column, approximately 30 kD (protein, listed as Alternaria alternata)
chain: MPITVPQATELKDLFSLKGKVVIVTGASGPTGIGTEAARGCAEYGADLAITYNSRAEGAEKNAKEMSEKYGVKVKAYKCQVNEYAQCEKLVQDVIKDFGKVDVFIANAGKTADNGILDATVEQWNEVIQTDLTGTFNCARAVGLHFRERKTGSLVITSSMSGHIANFPQEQASYNVAKAGCIHLAKSLANEWRDFARVNSISPGYIDTGLSDFVPQDIQKLWHSMIPMGRDAKATELKGAYVYFASDASSYCTGSDLLIDGGYCVR
B2: native purified MtDH: major allergen of Cladosporium herbarum, a NADP-dependent mannitol dehydrogenase, 29 kD, seq. ID No. 8 (protein, listed as Cladosporium herbarum)
chain: MPGQQATKHESLLDQLSLKGKVVVVTGASGPKGMGIEAARGCAEMGAAVAITYASRAQGAEENVKELEKTYGIKAKAYKCQVDSYESCEKLVKDVVADFGQIDAFIANAGATADSGILDGSVEAWNHVVQVDLNGTFHCAKAVGHHFKERGTGSLVITASMSGHIANFPQEQTSYNVAKAGCIHMARSLANEWRDFARVNSISPGYIDTGLSDFVPKETQQLWHSMIPMGRDGLAKELKGAYVYFASDASTYTTGADLLIDGGYTTR

Legend:
[1] = test system: IgE of sera of Alternaria alternata-sensitized patients; assay: IgE immune blot of recombinant Alternaria alternata mannitol dehydrogenase with the sera of 28 patients; assay type: binding, human
Description: The following procedure was chosen for purifying the recombinantly produced protein, which is provided with a poly-His fragment at the C terminus: the E. coli cells with the expression vector, which express the foreign protein, the Alternaria alternata mannitol dehydrogenase, were first lysed in the customary manner. […] The inclusion bodies formed by overexpression of the foreign protein were first solubilized in a buffer with 6-molar urea and subsequently purified by affinity chromatography over a nickel chelate column. The recombinantly produced mannitol dehydrogenase was applied in 6 M urea buffer. Imidazole buffer was employed for the elution. The protein-comprising fractions were subsequently purified further by preparative SDS-PAGE gel electrophoresis and analyzed, during which process it emerged that the allergen was already purified to virtually complete homogeneity.
The protein prepared in accordance with example 10 was separated by gel electrophoresis and tested in an IgE immune blot with the sera of 28 patients. All of the 28 sera originated from patients who had shown a positive response to the Alternaria alternata crude extract and who had been pretested both in a skin test and in an RAST. A pronounced band was visible in the immune blot in the case of 9 of the patients' sera tested. This corresponds to approximately 32% of the Alternaria alternata-sensitized patients.

[2] = test system: IgE antibodies of C. herbarum allergy sufferers; assay: IgE immune blot of the native purified MtDH after separation in the SDS gel; assay type: binding, human
Procedure: The protein was purified to homogeneity in a conventional method (example 1). The yield amounted to 1 mg.
Native purified MtDH was separated by molecular weight in a reducing SDS gel (Laemmli U K, Nature, 1970; 27:680–5). Subsequently, the protein was transferred onto a PVDF membrane in a Western blot (Towbin H et al., Proc. Natl. Acad. Sci USA, 1979; 76:4350–4). After free binding sites had been saturated (30 minutes in blocking buffer: 50 mM sodium phosphate pH 7.5, 0.5% Tween 20, 0.5% BSA, 0.05% NaN3), the membrane was incubated with patients' serum (1:10 diluted in blocking buffer). Then, the membrane was washed (with blocking buffer, 3×10 minutes) to remove unspecifically bound antibodies. Specifically bound IgE-Ab were detected with the aid of an ^125I-labeled rabbit anti-human IgE antibody. After the membrane had been exposed to an X-ray film, the result was available.

[3] = Two-dimensional separation by isoelectric focusing and SDS-PAGE; assay type: physicochemical
Description: (§1) Native purified MtDH was separated under denaturing conditions in an isoelectric focusing (O'Farrel P H, J. Biol. Chem., 1975; 250:4007–21) according to the net charge (isoelectric point) of the protein. Thereafter, the protein separated thus was subjected to SDS gel electrophoresis (Laemmli U K, Nature, 1970; 27:680–5), whereby a separation by molecular weight took place in addition. The protein was transferred to a PVDF membrane in a Western blot (Towbin H et al., Proc. Natl. Acad. Sci. USA, 1979; 76:4350–4). After free binding sites had been saturated (30 minutes in blocking buffer: 50 mM sodium phosphate pH 7.5, 0.5% Tween 20, 0.5% BSA, 0.05% NaN3), the membrane was incubated with patients' serum (1:10 diluted in blocking buffer). Then, the membrane was washed (with blocking buffer, 3×10 minutes) to remove unspecifically bound antibodies. Specifically bound IgE-Ab were detected with the aid of an ^125I-labeled rabbit anti-human IgE antibody. After the membrane had been exposed to an X-ray film, the results were available: […]

[4] = test system: IgE antibodies of C. herbarum allergy sufferers; assay: IgE immune blot of the native purified MtDH after 2-dimensional separation; assay type: binding; conditions: patients' serum 1:10, 125I-labeled anti-human IgE
Description: as §1

[5] = target: T1, Cladosporium herbarum mannitol dehydrogenase (Cladosporium herbarum, UniProt P0C0Y5); assay: Enzyme activity determination, absorption of NADPH at 340 nm; assay type: biochemical
T1 construct: the enzyme activity was determined with the traditionally purified protein; from tissue; host or cells: Cladosporium herbarum extract (ammonium sulfate precipitation, HIC, anion exchange)
Procedure: The experiments reveal that the highly purified major allergen of Cladosporium herbarum is indeed a mannitol dehydrogenase which catalyzes the following metabolic reaction: Fructose+NADPH+H^+ ? mannitol+NADP^+. […] The method of the activity determination is described in example 3.
To confirm the results according to the invention, the enzyme activity was determined with the traditionally purified protein. The absorption of NADPH was measured in a photometer at 340 nm.
• 50 mM Tris-HCl, pH 7.5 • 0.25 mM NADPH or NADH • D-fructose or fructose-6-phosphate (0.1; 0.2; 0.4; 0.6; 0.8; 1.0; 1.2 M) • H2O to 1 ml • the reaction is started with 0.5 μl of MtDH Results: • Reaction with fructose and NADPH • No reaction with fructose-6-phosphate and NADH

IgE of patients' sera = assay: IgE immunoblots of Cladosporium herbarum crude extract with sera from 62 patients; assay type: binding, human; conditions: sera from 62 patients preselected in skin test or RAST, positive to Cladosporium herbarum extract
Procedure: For the purposes of the present invention, IgE immunoblots of Cladosporium herbarum crude extract were assayed with sera from 62 patients. An immunoreactive protein of molecular weight 29 kD, which was recognized by 61% of the patients' sera, was identified. […] No other allergen in the Cladosporium herbarum extract reacted with such a high percentage of patients' sera. It is therefore assumed that this protein is the major allergen of Cladosporium herbarum.

| Molecule | share of Alternaria alternata-sensitized patients with a pronounced band ([1]; 28 sera) | patients' sera with a pronounced band in the immune blot ([1]; of 28 sera positive to Alternaria alternata crude extract) | reaction with IgE antibodies of C. herbarum allergy sufferers ([2]; SDS gel, patients' serum 1:10, 125I-labeled anti-human IgE) | result in the IgE immunoblot ([2]; pool of six patients) | isoelectric point [3] | reaction with IgE antibodies of C. herbarum allergy sufferers [4] | enzyme reaction ([5]; with fructose and NADPH) | enzyme reaction ([5]; with fructose-6-phosphate and NADH) | patients' sera recognizing the protein (IgE of patients' sera) |
| --- | --- | --- | --- | --- | --- | --- | --- | --- | --- |
| B1 | approximately 32% | 9 | – | – | – | – | – | – | – |
| B2 | – | – | reacts specifically | highly positive | 5.8 | reacts specifically | Reaction | No reaction | 61% |
